Data reported in PMC6628648, “Enabling microbial syringol conversion through structure-guided protein engineering” (Proceedings of the National Academy of Sciences of the …, 2019).

Key:
COc1cccc(OC)c1O = test: purified protein, by the assay type; details: pH 7.5; 25.0 °C
COc1ccccc1O = test: purified protein, by the assay type; details: pH 7.5; 25.0 °C

Question: What does the source list for “GcoA-F169A (Amycolatopsis sp. ATCC 39116; F169A)”?
Answer: Km (COc1cccc(OC)c1O): 10 ± 1 µM; kcat (COc1cccc(OC)c1O): 5.9 ± 0.01 s⁻¹; kcat/Km (COc1cccc(OC)c1O): 600000 ± 90000 M⁻¹ s⁻¹; Km (COc1ccccc1O): 40 ± 6 µM; kcat (COc1ccccc1O): 11 ± 0.03 s⁻¹; kcat/Km (COc1ccccc1O): 290000 ± 40000 M⁻¹ s⁻¹
